Data from patent US20260144882A1 (BIO THERA SOLUTIONS, published 2026).
Positions count from the first letter of the chain named.

B1: antibody 1F3-1F4 (antibody, human IgG1, kappa, V domains shown)
VH: EVQLVESGGGLVQPGGSLRLSCAASGDIFTGSSMSWVRQAPGKGLEWVSGIYASGSDKRYADSVKGRFTISRDNSKNTLYLQMNSLRAEDTAVYYCARAELLAFDVYTASDYWGQGTLVTVSS
VL: DIQMTQSPSSLSASVGDRVTITCRASQGISSYLAWYQQKPGKAPKLLIYAASSLQSGVPSRFSGSGSGTDFTLTISSLQPEDFATYYCQQHYTTPPTFGQGTKVEIKR
B2: antibody 1F3-1C4 (antibody, human IgG1, kappa, V domains shown)
VH: EVQLVESGGGLVQPGGSLRLSCAASGFTFGDYGMSWVRQAPGKGLEWVSGIKPWGSGTYYADSVKGRFTISRDNSKNTLYLQMNSLRAEDTAVYYCARAELLAFDVYTASDYWGQGTLVTVSS
VL: B1 VL
B3: antibody 1G8-2H8 (antibody, human IgG1, kappa, V domains shown)
VH: EVQLVESGGGLVQPGGSLRLSCAASGDIFGSYAMSWVRQAPGKGLEWVSAISGSGGSTYYADSVKGRFTISRDNSKNTLYLQMNSLRAEDTAVYYCARQTEDRSYGYDLDYWGQGTLVTVSS
VL: B1 VL
B4: antibody 1G8-2F11 (antibody, human IgG1, kappa, V domains shown)
VH: EVQLVESGGGLVQPGGSLRLSCAASGYTFGSNAMSWVRQAPGKGLEWVSRISPDSSGISYADSVKGRFTISRDNSKNTLYLQMNSLRAEDTAVYYCARQTEDRSYGYDLDYWGQGTLVTVSS
VL: B1 VL
B5: antibody 1G8-1C10 (antibody, human IgG1, kappa, V domains shown)
VH: EVQLVESGGGLVQPGGSLRLSCAASGFNFSDYSMSWVRQAPGKGLEWVSRIKASSGGSDYADSVKGRFTISRDNSKNTLYLQMNSLRAEDTAVYYCARQTEDRSYGYDLDYWGQGTLVTVSS
VL: B1 VL
B6: antibody 1F3-2D2 (antibody, human IgG1, kappa, V domains shown)
VH: B2 VH with T28N, G30S, D31S, G50R, K52S, W54Y, G55T, S56G, G57T, Y59H
VL: B1 VL
B7: antibody 1F3-1D12 (antibody, human IgG1, kappa, V domains shown)
VH: B2 VH with F27Y, T28N, G30T, K52S, P53G, W54S, S56D, G57N, T58K
VL: B1 VL
B8: antibody 1G8-2H4 (antibody, human IgG1, kappa, V domains shown)
VH: B3 VH with I28S, G30T, S31G
VL: B1 VL
B9: 10F4-1F1 scFv (scFv, V domains shown)
VH: EVQLVESGGGLVQPGGSLRLSCAASGFSFSNYWMSWVRQAPGKGLEWVSAISPGDGTIFYADSVKGRFTISRDNSKNTLYLQMNSLRAEDTAVYYCAREYSDVVDYVSVRTPLDYWGQGTLVTVSS
VL: B1 VL
notes: phage clone supernatant
B10: 10F4-2C2 scFv (scFv, V domains shown)
VH: B9 VH with S28N, A50V, S52D, P53A, G54H, D55S, G56A, T57N, F59R
VL: B1 VL
notes: phage clone supernatant
B11: 10F4-2B11 scFv (scFv, V domains shown)
VH: B9 VH with F27G, S30T, A50V, S52D, P53S, G54T, D55G, G56S, T57N, I58R
VL: B1 VL
notes: phage clone supernatant
B12: 1G8-1C12 scFv (scFv, V domains shown)
VH: EVQLVESGGGLVQPGGSLRLSCAASGGSFYGFGMSWVRQAPGKGLEWVSGIYSHDADKRYADSVKGRFTISRDNSKNTLYLQMNSLRAEDTAVYYCARQTEDRSYGYDLDYWGQGTLVTVSS
VL: B1 VL
notes: phage clone supernatant
B13: antibody 1F3-1E4 (antibody, human IgG1, kappa, V domains shown)
VH: EVQLVESGGGLVQPGGSLRLSCAASGFSFGTYGMSWVRQAPGKGLEWVSRISGDSANIRYADSVKGRFTISRDNSKNTLYLQMNSLRAEDTAVYYCARAELLAFDVYTASDYWGQGTLVTVSS
VL: B1 VL

target: T1, human Nectin-4 extracellular antigen hNectin-4-His (human, UniProt Q96NY8 32-349); assay: ELISA, coated hNectin-4-His
T1 construct: C-terminal 8xHis tag included
T1 sequence: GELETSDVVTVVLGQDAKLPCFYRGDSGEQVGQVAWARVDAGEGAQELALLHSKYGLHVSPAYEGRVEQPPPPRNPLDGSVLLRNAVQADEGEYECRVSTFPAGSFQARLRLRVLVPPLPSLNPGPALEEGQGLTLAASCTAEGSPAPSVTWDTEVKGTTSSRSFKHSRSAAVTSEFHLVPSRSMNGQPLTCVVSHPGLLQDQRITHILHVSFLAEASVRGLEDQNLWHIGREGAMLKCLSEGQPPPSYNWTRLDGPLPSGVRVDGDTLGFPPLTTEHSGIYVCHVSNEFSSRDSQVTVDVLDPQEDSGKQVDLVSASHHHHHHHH
Description: The binding activity of the antibodies was detected by ELISA.

| Binder | EC50 [ng/mL] |
| --- | --- |
| B1 | 9 |
| B2 | 11 |
| B3 | 5 |
| B4 | 4 |
| B5 | 5 |
| B6 | 15 |
| B7 | 7 |
| B8 | 39 |

target: T1, human Nectin-4 extracellular antigen …; assay: ELISA, phage scFv supernatant 1:50

| Binder | OD value [OD] |
| --- | --- |
| B9 | 1.63 |
| B10 | 1.58 |
| B11 | 1.55 |
| B12 | 1.42 |

target: T1, human Nectin-4 extracellular antigen …; assay: SPR, antibody on Protein A chip, 1:1 fit
Description: In this study, the affinity of the antibodies for the human Nectin-4 extracellular antigen was detected by surface plasmon resonance (SPR) technique (BIAcore: GE Healthcare, T200).

| Binder | Kd [nM] | koff [s⁻¹] | kon [M⁻¹ s⁻¹] |
| --- | --- | --- | --- |
| B13 | 0.426 | 0.000825 | 1.94e+06 |
